Measured values: patent publication US7521053 (dated 2009)

T1: hAng-1 (human, UniProt Q15389)
T1 chain: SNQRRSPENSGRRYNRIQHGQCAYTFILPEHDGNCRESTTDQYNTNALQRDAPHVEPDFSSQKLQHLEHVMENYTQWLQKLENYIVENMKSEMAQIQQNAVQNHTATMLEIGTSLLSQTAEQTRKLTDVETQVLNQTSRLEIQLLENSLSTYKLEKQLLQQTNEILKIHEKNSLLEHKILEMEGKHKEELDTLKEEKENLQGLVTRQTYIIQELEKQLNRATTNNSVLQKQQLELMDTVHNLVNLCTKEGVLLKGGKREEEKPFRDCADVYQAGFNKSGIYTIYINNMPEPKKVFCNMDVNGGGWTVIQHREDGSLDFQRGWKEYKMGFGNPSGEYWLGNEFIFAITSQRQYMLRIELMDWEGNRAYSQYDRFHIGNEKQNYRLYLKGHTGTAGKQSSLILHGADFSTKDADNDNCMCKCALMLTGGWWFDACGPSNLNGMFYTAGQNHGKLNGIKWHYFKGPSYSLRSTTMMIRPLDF

T2: mAng-2 (mouse, UniProt O35608)
T2 chain: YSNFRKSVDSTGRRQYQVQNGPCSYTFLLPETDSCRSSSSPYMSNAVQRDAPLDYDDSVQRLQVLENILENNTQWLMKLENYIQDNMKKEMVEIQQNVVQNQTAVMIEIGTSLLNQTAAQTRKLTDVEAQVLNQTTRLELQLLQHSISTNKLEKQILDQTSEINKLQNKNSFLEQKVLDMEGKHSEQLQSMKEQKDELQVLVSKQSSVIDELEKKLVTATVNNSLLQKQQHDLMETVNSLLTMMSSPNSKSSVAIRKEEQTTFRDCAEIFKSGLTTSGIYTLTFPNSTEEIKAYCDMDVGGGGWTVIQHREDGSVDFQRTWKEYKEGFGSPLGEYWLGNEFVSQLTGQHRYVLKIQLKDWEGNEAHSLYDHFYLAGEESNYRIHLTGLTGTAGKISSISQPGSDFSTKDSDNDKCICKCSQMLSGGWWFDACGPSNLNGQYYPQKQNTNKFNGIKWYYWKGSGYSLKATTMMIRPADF

T3: hAng-2 (human, UniProt O15123)
T3 chain: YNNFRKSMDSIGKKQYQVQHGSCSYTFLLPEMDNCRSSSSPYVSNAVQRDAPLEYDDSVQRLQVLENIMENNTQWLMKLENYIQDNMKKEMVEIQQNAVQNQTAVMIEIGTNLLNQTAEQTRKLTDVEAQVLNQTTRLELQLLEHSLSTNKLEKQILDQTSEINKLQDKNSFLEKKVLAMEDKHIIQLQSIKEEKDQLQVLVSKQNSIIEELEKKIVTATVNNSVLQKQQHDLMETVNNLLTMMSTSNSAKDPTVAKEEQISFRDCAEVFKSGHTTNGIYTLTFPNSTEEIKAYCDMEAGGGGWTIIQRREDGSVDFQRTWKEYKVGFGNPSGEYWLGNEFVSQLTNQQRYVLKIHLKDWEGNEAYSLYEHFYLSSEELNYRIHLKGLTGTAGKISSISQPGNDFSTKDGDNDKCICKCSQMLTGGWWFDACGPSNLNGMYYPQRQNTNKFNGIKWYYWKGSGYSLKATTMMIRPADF


Key:
hAng-1 [1] = target: T1, hAng-1; test: competition ELISA (no inhibition)
hAng-1 [2] = target: T1, hAng-1; test: competition ELISA (Tie2-Fc)
mAng-2 = target: T2, mAng-2; test: competition ELISA (Tie2-Fc)
hAng-2 = target: T3, hAng-2; test: competition ELISA (Tie2-Fc)

Row | Binder | binding result (hAng-1 [1]) | IC50 (hAng-1 [2]) | IC50 (mAng-2) | IC50 (hAng-2)
1 | Ab 551 (antibody, V domains shown) VH: QVQLVQSGAEVKKPGSSVKVSCKASGGTFSSYAISWVRQAPGQGLEWMGGIIPIFGTANYAQKFQGRVTITADESTSTAYMELSSLRSEDTAVYYCARGYDFWSGYSLDAFDIWGQGTMVTVSS VL: not shown | no binding | – | – | –
2 | Ab 537 (antibody, V domains shown) VH: QVQLVQSGAEVKKPGSSVKVSCKASGGTFSSYAISWVRQAPGQGLEWMGGIIPILGIANYAQKFQGRVTITADKSTSTAYMELSGLGSEDTAVYYCARGSSDAAVAGMWGQGTLVTVSS VL: QSVLTQPPSVSAAPGQDVTISCSGNNSNIGNNYVSWYQQVPGTAPKLLVYDNHKRPSGISDRFSGSKSDTSATLDITGLQPGDEADYYCGTWDTSLSANWVFGGGTKLTVL | no binding | – | – | –
3 | Ab 544 (antibody, V domains shown) VH: QVQLVQSGAEVKKPGASVKVSCKASGGTFSSYAISWVRQAPGQGLEWMGGIIPIFGTANYAQKFQGRVTITADESTSTAYMELSSLRSEDTAVYYCARFESGYWGDAFDIWGQGTMVTVSS VL: not shown | – | 23.3 nM | 1.82 nM | 0.97 nM
4 | Ab 535 (antibody, V domains shown) VH: QVQLVQSGAEVKKPGSSVKVSCKASGGTFSSYAISWVRQAPGQGLEWMGGIIPIFGTANYAQKFQGRVTITADKSTSTAYMELSSLRSEDTAVYYCAAFSPFTETDAFDIWGQGTMVTVSS VL: QSVLTQPPSVSAAPGQKVTISCSGSNSNIGNNFVSWYQQLPGTAPKLLVYDNNKRPSGIPDRFSGSKSGTSATLGITGLQTGDEADYYCGTWDSSLSAAEVVFGGGTKLTVL | no binding | – | – | –
5 | Ab 546 (antibody, V domains shown) VH: not shown VL: QSVLTQPSSVSEAPRQRVTISCSGSASNIGANGVSWYHQVPGKAPRLLLSHDGLVTSGVPDRLSVSKSGTSASLAISGLHSDDEGDYYCAVWDDSLNAVVFGGGTKLTVL | no binding | – | 1.09 nM | 0.37 nM
6 | Ab 540 (antibody, V domains shown) VH: QVQLVQSGAEVKKPGSSVKVSCKASGGTFSSYAISWVRQAPGQGLEWMGGIIPILGIANYAQKFQGRVTITADKFTSTAYMELSSLGSEDTAVYYCARAVPGTEDAFDIWGQGTMVTVSS VL: QSVLTQPPSVSAAPGQKVTISCSGSSSNIGANYVSWYQQLPGTAPKLLIYNNNKRPSGIPDRFSGSKSDTSATLGITGLQTGDEADYYCGAWDSSLSASWVFGGGTKLTVL | no binding | – | – | –
7 | Ab 531 (antibody, V domains shown) VH: EVQLVQSGAEVKKPGSSVKVSCKASGGTFSSYAISWVRQAPGQGLEWMGGIIPILGIANYAQKFQGRVTITADKSTNTAYMELTSLTSDDTAVYYCARDREDTAMVFNYWGQGTLVTVSS VL: QSVLTQPPSVSAAPGQKVTVSCSGSSSNIGNNYVSWYQQLPGTAPKLLIYDNNKRPSGIPDRFSGSKSGTSATLGITGLQTGDEADYYCGTWDSSLSAFWVFGGGTKLTVL | no binding | – | – | –
8 | Ab 528 (antibody, V domains shown) VH: QVQLVQSGAEVKKPGSSVKVSCKASGGTFSSYAISWVRQAPGQGLEWMGGIIPIFGTANYAQKFQGRVTITADESTSTAYMELSSLRSEDTAVYYCARGVVGDFDWLSFFDYWGQGTLVTVSS VL: SYELTQPPSVSVSPGQTASITCSGDKLGYTYTSWFQQKPGQSPVLVIFQDFKRPSGIPERFSGSNSGNTATLTISGTQAMDEADYYCQAWDSTTAVVFGTGTKVTVL | no binding | – | – | –

Other lines, results leading:

Row | binding result (hAng-1 [1]) | IC50 (hAng-1 [2]) | IC50 (mAng-2) | IC50 (hAng-2) | Binder
9 | no binding | – | 0.26 nM | 0.26 nM | Ab 565 (antibody, V domains shown) VH: QVQLVQSGAEVKKPGSSVKVSCKASGGTFSSYAISWVRQAPGQGLEWMGGIIPIFGTANYAQKFQGRVTITADESTSTAYMELSSLRSEDTAVYYCARSPIYYDILTGIDAFDIWGQGTMVTVSS VL: EIVLTQSPGTLSLSPGERATLSCRASQSVSSSSLAWYQQKPGQAPRLLVYAASSRATGIPDRFSGSGSGTDFTLTISRLEPEDFAVYYCQHYGSSPRTFGQGTKVEIK
10 | no binding | – | – | – | Ab 555 (antibody, V domains shown) VH: QVQLQESGGGVVQPGRSLRLSCAASGFTFSSYAMHWVRQAPGKGLEWVAVISYDGSNKYYADSVKGRFTISRDNSKNTLYLQMNSLRAEDTAVYYCARSASDHYYDSSGYYSDAFDIWGQGTMVTVSS VL: not shown
11 | no binding | – | – | – | Ab 543 (antibody, V domains shown) VH: QVQLVQSGAEVKKPGSSVKVSCKASGGTFSSYAISWVRQAPGQGLEWMGRIIPILGIANYAQKFQGRVTITADKSTSTAYMELSSLRSEDTAVYYCARPYYDFWSGPGGMDVWGQGTTVTVSS VL: not shown
12 | no binding | – | 0.08 nM | 0.3 nM | Ab 533 (antibody, V domains shown) VH: EVQLVQSGGGVVQPGRSLRLSCAASGFTFSSYGMHWVRQAPGKGLEWVSYISSSGSTIYYADSVKGRFTISRDNAKNSLYLQMNSLRAEDTAVYYCARDLLDYDILTGYGYWGQGTLVTVSS VL: SYELTQPPSVSVSPGQTARITCSGDALPKQYAYWYQQKPGQAPVLVIYKDSERPSGIPERFSGSSSGTTVTLTISGVQAEDEADYYCQSADSSHVVFGGGTKLTVL
13 | no binding | – | – | – | Ab 553 (antibody, V domains shown) VH: QVQLVQSGAEVKKPGASVKVSCKASGYTFTSYAMHWVRQAPGQRLEWMGWINAGNGNTKYSQKFQGRVTITRDTSASTAYMELSGLRSEDTAVYYCARGVDDYGGNSWAFDIWGQGTMVTVSS VL: DIVMTQSPLSLPVTPGEPASISCRSSQSLLHSNGYNYLDWYLQKPGQSPQLLIYLGSNRASGVPDRFTGSGSATDFTLRISRVEAEDVGVYYCMQALQTPLTFGGGTKVEIK
